The assay addresses T1, epidermal growth factor receptor (EGFR) (UniProt P00533 25-1210, limits assumed).
T1 construct: whole, on cells; Endogenous receptor on MDA-MB-468 cells
In words: blocking of Cy5-NP uptake on MDA-MB-468 cells by 2 uM free GE11, fluorescence microscopy. The procedure: Cellular Uptake. The cellular uptake behaviors of the NPs in MDA-MB-468 TNBC cell lines were analyzed using a fluorescence microscope based on the Cy5 dye conjugated on the NPs. Cells were seeded (1×10^5 cells/ml) onto 8-well high-optical-quality plates and grown overnight. Cells were treated with either non-targeted NPs, targeted NPs, or targeted NPs with free GE11 peptide (2 µM; blocking assay) at an NP concentration of 100 µg/ml. After 2 h incubation, cells were washed with PBS twice, fixed with 4% PFA, and stained with DAPI for 4 h. Then the cells were mounted with Prolong Gold anti-fade reagent. The cellular uptake was observed using a fluorescence microscope (Nikon, Melville, N.Y.). Digital monochromatic images were acquired using NIS-Elements BR Software.
In Vitro Cellular Uptake. EGFR is overexpressed in many common types of cancer. Here, an EGFR targeting peptide, GE11, was used as an active-tumor-targeting ligand to enhance cellular uptake. MDA-MB-468, a TNBC cell line that overexpresses EGFR, was used as the model cell line. Cells were incubated with either non-targeted (i.e., NPs without GE11 conjugation) or targeted (i.e., GE11 conjugated) NPs for 2 h. Cells without any treatment were used as a negative control. Cy5 was conjugated onto the NPs. Fluorescence imaging analysis was performed to compare cellular uptake. […]

B1: GE11 peptide (YHWYGYTPQNVIGGGGC) (peptide)
peptide: YHWYGYTPQNVIGGGGC
notes: also called free GE11; EGFR targeting peptide
In the case of B1, the binding result is listed as “binds”.
